Measured values from patent US20150197564A1 (Regeneron, published 2015).

Biological target: T1, bovine LPL (bovine, UniProt P11151 29-478, limits assumed)
T1 sequence (looked up): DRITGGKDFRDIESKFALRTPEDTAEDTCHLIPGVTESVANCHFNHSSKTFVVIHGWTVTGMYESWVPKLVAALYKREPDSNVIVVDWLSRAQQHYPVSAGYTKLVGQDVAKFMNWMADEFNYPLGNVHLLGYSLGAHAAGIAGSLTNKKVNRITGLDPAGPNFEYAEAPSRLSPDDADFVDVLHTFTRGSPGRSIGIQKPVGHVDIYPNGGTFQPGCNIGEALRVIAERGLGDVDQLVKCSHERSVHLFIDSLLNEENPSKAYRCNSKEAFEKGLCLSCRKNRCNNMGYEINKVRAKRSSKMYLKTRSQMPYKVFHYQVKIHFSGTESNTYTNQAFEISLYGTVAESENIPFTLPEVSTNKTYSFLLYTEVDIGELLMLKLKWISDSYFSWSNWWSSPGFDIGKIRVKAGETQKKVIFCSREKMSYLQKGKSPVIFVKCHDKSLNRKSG
Assay: cell-based or functional assay

EC50 (nM), inhibition of LPL activity: 0.2 nM
B1: hANGPTL4(26-148)-mFc (Fc fusion)
chain: GPVQSKSPRFASWDEMNVLAHGLLQLGQGLREHAERTRSQLSALERRLSACGSACQGTEGSTDLPLAPESRVDPEVLHSLQTQLKAQNSRIQQLFHKVAQQQRHLEKQHLRIQHLQSQFGLLDEPRGPTIKPCPPCKCPAPNLLGGPSVFIFPPKIKDVLMISLSPIVTCVVVDVSEDDPDVQISWFVNNVEVHTAQTQTHREDYNSTLRVVSALPIQHQDWMSGKEFKCKVNNKDLPAPIERTISKPKGSVRAPQVYVLPPPEEEMTKKQVTLTCMVTDFMPEDIYVEWTNNGKTELNYKNTEPVLDSDGSYFMYSKLRVEKKNWVERNSYSCSVVHEGLHNHHTTKSFSRTPGK
